Key:
[1] = molecular target: HSPB1ACD (α-crystallin domain of HSPB1) (human); experiment: native MS
[2] = molecular target: HSPB5ACD (α-crystallin domain of HSPB5) (human); experiment: native MS

HSPB1 C-terminal peptide (cognate peptide of HSPB1ACD)
Kd [1]: < 100 µM

HSPB5 C-terminal peptide (cognate peptide of HSPB5ACD)
Kd [2]: < 100 µM

Reference: article doi:10.1101/2024.01.05.574393
